Assay results as given in publication PMC7367873, “Dissecting the sequence determinants for dephosphorylation by the catalytic subunits of phosphatases PP1 and PP2A” (Nature Communications, 2020).

B1: KTN1 (protein, UniProt Q86UP2 1-1357, looked up)
Kinectin: MEFYESAYFIVLIPSIVITVIFLFFWLFMKETLYDEVLAKQKREQKLIPTKTDKKKAEKKKNKKKEIQNGNLHESDSESVPRDFKLSDALAVEDDQVAPVPLNVVETSSSVRERKKKEKKQKPVLEEQVIKESDASKIPGKKVEPVPVTKQPTPPSEAAASKKKPGQKKSKNGSDDQDKKVETLMVPSKRQEALPLHQETKQESGSGKKKASSKKQKTENVFVDEPLIHATTYIPLMDNADSSPVVDKREVIDLLKPDQVEGIQKSGTKKLKTETDKENAEVKFKDFLLSLKTMMFSEDEALCVVDLLKEKSGVIQDALKKSSKGELTTLIHQLQEKDKLLAAVKEDAAATKDRCKQLTQEMMTEKERSNVVITRMKDRIGTLEKEHNVFQNKIHVSYQETQQMQMKFQQVREQMEAEIAHLKQENGILRDAVSNTTNQLESKQSAELNKLRQDYARLVNELTEKTGKLQQEEVQKKNAEQAATQLKVQLQEAERRWEEVQSYIRKRTAEHEAAQQDLQSKFVAKENEVQSLHSKLTDTLVSKQQLEQRLMQLMESEQKRVNKEESLQMQVQDILEQNEALKAQIQQFHSQIAAQTSASVLAEELHKVIAEKDKQIKQTEDSLASERDRLTSKEEELKDIQNMNFLLKAEVQKLQALANEQAAAAHELEKMQQSVYVKDDKIRLLEEQLQHEISNKMEEFKILNDQNKALKSEVQKLQTLVSEQPNKDVVEQMEKCIQEKDEKLKTVEELLETGLIQVATKEEELNAIRTENSSLTKEVQDLKAKQNDQVSFASLVEELKKVIHEKDGKIKSVEELLEAELLKVANKEKTVQDLKQEIKALKEEIGNVQLEKAQQLSITSKVQELQNLLKGKEEQMNTMKAVLEEKEKDLANTGKWLQDLQEENESLKAHVQEVAQHNLKEASSASQFEELEIVLKEKENELKRLEAMLKERESDLSSKTQLLQDVQDENKLFKSQIEQLKQQNYQQASSFPPHEELLKVISEREKEISGLWNELDSLKDAVEHQRKKNNDLREKNWEAMEALASTEKMLQDKVNKTSKERQQQVEAVELEAKEVLKKLFPKVSVPSNLSYGEWLHGFEKKAKECMAGTSGSEEVKVLEHKLKEADEMHTLLQLECEKYKSVLAETEGILQKLQRSVEQEENKWKVKVDESHKTIKQMQSSFTSSEQELERLRSENKDIENLRREREHLEMELEKAEMERSTYVTEVRELKDLLTELQKKLDDSYSEAVRQNEELNLLKAQLNETLTKLRTEQNERQKVAGDLHKAQQSLELIQSKIVKAAGDTTVIENSDVSPETESSEKETMSVSLNQTVTQLQQLLQAVNQQLTKEKEHYQVLE
B2: MRE11A (protein, UniProt P49959 2-708, looked up)
Double-strand break repair …: STADALDDENTFKILVATDIHLGFMEKDAVRGNDTFVTLDEILRLAQENEVDFILLGGDLFHENKPSRKTLHTCLELLRKYCMGDRPVQFEILSDQSVNFGFSKFPWVNYQDGNLNISIPVFSIHGNHDDPTGADALCALDILSCAGFVNHFGRSMSVEKIDISPVLLQKGSTKIALYGLGSIPDERLYRMFVNKKVTMLRPKEDENSWFNLFVIHQNRSKHGSTNFIPEQFLDDFIDLVIWGHEHECKIAPTKNEQQLFYISQPGSSVVTSLSPGEAVKKHVGLLRIKGRKMNMHKIPLHTVRQFFMEDIVLANHPDIFNPDNPKVTQAIQSFCLEKIEEMLENAERERLGNSHQPEKPLVRLRVDYSGGFEPFSVLRFSQKFVDRVANPKDIIHFFRHREQKEKTGEEINFGKLITKPSEGTTLRVEDLVKQYFQTAEKNVQLSLLTERGMGEAVQEFVDKEEKDAIEELVKYQLEKTQRFLKERHIDALEDKIDEEVRRFRETRQKNTNEEDDEVREAMTRARALRSQSEESASAFSADDLMSIDLAEQMANDSDDSISAATNKGRGRGRGRRGGRGQNSASRGGSQRGRADTGLETSTRSRNSKTAVSASRNMSIIDAFKSTRQQPSRNVTTKNYSEVIEVDESDVEEDIFPTTSKTDQRWSSTSSSKIMSQSQVSKGVDFESSEDDDDDPFMNTSSLRRNRR
B3: XPO5 (protein, UniProt Q9HAV4 2-1204, looked up)
Exportin-5: AMDQVNALCEQLVKAVTVMMDPNSTQRYRLEALKFCEEFKEKCPICVPCGLRLAEKTQVAIVRHFGLQILEHVVKFRWNGMSRLEKVYLKNSVMELIANGTLNILEEENHIKDALSRIVVEMIKREWPQHWPDMLIELDTLSKQGETQTELVMFILLRLAEDVVTFQTLPPQRRRDIQQTLTQNMERIFSFLLNTLQENVNKYQQVKTDTSQESKAQANCRVGVAALNTLAGYIDWVSMSHITAENCKLLEILCLLLNEQELQLGAAECLLIAVSRKGKLEDRKPLMVLFGDVAMHYILSAAQTADGGGLVEKHYVFLKRLCQVLCALGNQLCALLGADSDVETPSNFGKYLESFLAFTTHPSQFLRSSTQMTWGALFRHEILSRDPLLLAIIPKYLRASMTNLVKMGFPSKTDSPSCEYSRFDFDSDEDFNAFFNSSRAQQGEVMRLACRLDPKTSFQMAGEWLKYQLSTFLDAGSVNSCSAVGTGEGSLCSVFSPSFVQWEAMTLFLESVITQMFRTLNREEIPVNDGIELLQMVLNFDTKDPLILSCVLTNVSALFPFVTYRPEFLPQVFSKLFSSVTFETVEESKAPRTRAVRNVRRHACSSIIKMCRDYPQLVLPNFDMLYNHVKQLLSNELLLTQMEKCALMEALVLISNQFKNYERQKVFLEELMAPVASIWLSQDMHRVLSDVDAFIAYVGTDQKSCDPGLEDPCGLNRARMSFCVYSILGVVKRTCWPTDLEEAKAGGFVVGYTSSGNPIFRNPCTEQILKLLDNLLALIRTHNTLYAPEMLAKMAEPFTKALDMLDAEKSAILGLPQPLLELNDSPVFKTVLERMQRFFSTLYENCFHILGKAGPSMQQDFYTVEDLATQLLSSAFVNLNNIPDYRLRPMLRVFVKPLVLFCPPEHYEALVSPILGPLFTYLHMRLSQKWQVINQRSLLCGEDEAADENPESQEMLEEQLVRMLTREVMDLITVCCVSKKGADHSSAPPADGDDEEMMATEVTPSAMAELTDLGKCLMKHEDVCTALLITAFNSLAWKDTLSCQRTTSQLCWPLLKQVLSGTLLADAVTWLFTSVLKGLQMHGQHDGCMASLVHLAFQIYEALRPRYLEIRAVMEQIPEIQKDSLDQFDCKLLNPSLQKVADKRRKDQFKRLIAGCIGKPLGEQFRKEVHIKNLPSLFKKTKPMLETEVLDNDGGGLATIFEP
B4: CCDC18 (protein, UniProt Q5T9S5 1-1454, looked up)
Coiled-coil domain-containing …: MESSSSDYYNKDNEEESLLANVASLRHELKITEWSLQSLGEELSSVSPSENSDYAPNPSRSEKLILDVQPSHPGLLNYSPYENVCKISGSSTDFQKKPRDKMFSSSAPVDQEIKSLREKLNKLRQQNACLVTQNHSLMTKFESIHFELTQSRAKVSMLESAQQQAASVPILEEQIINLEAEVSAQDKVLREAENKLEQSQKMVIEKEQSLQESKEECIKLKVDLLEQTKQGKRAERQRNEALYNAEELSKAFQQYKKKVAEKLEKVQAEEEILERNLTNCEKENKRLQERCGLYKSELEILKEKLRQLKEENNNGKEKLRIMAVKNSEVMAQLTESRQSILKLESELENKDEILRDKFSLMNENRELKVRVAAQNERLDLCQQEIESSRVELRSLEKIISQLPLKRELFGFKSYLSKYQMSSFSNKEDRCIGCCEANKLVISELRIKLAIKEAEIQKLHANLTANQLSQSLITCNDSQESSKLSSLETEPVKLGGHQVESVKDQNQHTMNKQYEKERQRLVTGIEELRTKLIQIEAENSDLKVNMAHRTSQFQLIQEELLEKASNSSKLESEMTKKCSQLLTLEKQLEEKIVAYSSIAAKNAELEQELMEKNEKIRSLETNINTEHEKICLAFEKAKKIHLEQHKEMEKQIERLEAQLEKKDQQFKEQEKTMSMLQQDIICKQHHLESLDRLLTESKGEMKKENMKKDEALKALQNQVSEETIKVRQLDSALEICKEELVLHLNQLEGNKEKFEKQLKKKSEEVYCLQKELKIKNHSLQETSEQNVILQHTLQQQQQMLQQETIRNGELEDTQTKLEKQVSKLEQELQKQRESSAEKLRKMEEKCESAAHEADLKRQKVIELTGTARQVKIEMDQYKEELSKMEKEIMHLKRDGENKAMHLSQLDMILDQTKTELEKKTNAVKELEKLQHSTETELTEALQKREVLETELQNAHGELKSTLRQLQELRDVLQKAQLSLEEKYTTIKDLTAELRECKMEIEDKKQELLEMDQALKERNWELKQRAAQVTHLDMTIREHRGEMEQKIIKLEGTLEKSELELKECNKQIESLNDKLQNAKEQLREKEFIMLQNEQEISQLKKEIERTQQRMKEMESVMKEQEQYIATQYKEAIDLGQELRLTREQVQNSHTELAEARHQQVQAQREIERLSSELEDMKQLSKEKDAHGNHLAEELGASKVREAHLEARMQAEIKKLSAEVESLKEAYHMEMISHQENHAKWKISADSQKSSVQQLNEQLEKAKLELEEAQDTVSNLHQQVQDRNEVIEAANEALLTKESELTRLQAKISGHEKAEDIKFLPAPFTSPTEIMPDVQDPKFAKCFHTSFSKCTKLRRSISASDLTFKIHGDEDLSEELLQDLKKMQLEQPSTLEESHKNLTYTQPDSFKPLTYNLEADSSENNDFNTLSGMLRYINKEVRLLKKSSMQTGAGLNQGENV
B5: LBR (protein, UniProt Q14739 1-615, looked up)
Delta(14)-sterol reductase LBR: MPSRKFADGEVVRGRWPGSSLYYEVEILSHDSTSQLYTVKYKDGTELELKENDIKPLTSFRQRKGGSTSSSPSRRRGSRSRSRSRSPGRPPKSARRSASASHQADIKEARREVEVKLTPLILKPFGNSISRYNGEPEHIERNDAPHKNTQEKFSLSQESSYIATQYSLRPRREEVKLKEIDSKEEKYVAKELAVRTFEVTPIRAKDLEFGGVPGVFLIMFGLPVFLFLLLLMCKQKDPSLLNFPPPLPALYELWETRVFGVYLLWFLIQVLFYLLPIGKVVEGTPLIDGRRLKYRLNGFYAFILTSAVIGTSLFQGVEFHYVYSHFLQFALAATVFCVVLSVYLYMRSLKAPRNDLSPASSGNAVYDFFIGRELNPRIGTFDLKYFCELRPGLIGWVVINLVMLLAEMKIQDRAVPSLAMILVNSFQLLYVVDALWNEEALLTTMDIIHDGFGFMLAFGDLVWVPFIYSFQAFYLVSHPNEVSWPMASLIIVLKLCGYVIFRGANSQKNAFRKNPSDPKLAHLKTIHTSTGKNLLVSGWWGFVRHPNYLGDLIMALAWSLPCGFNHILPYFYIIYFTMLLVHREARDEYHCKKKYGVAWEKYCQRVPYRIFPYIY
B6: CLPTM1L (protein, UniProt Q96KA5 1-538, looked up)
Lipid scramblase CLPTM1L: MWSGRSSFTSLVVGVFVVYVVHTCWVMYGIVYTRPCSGDANCIQPYLARRPKLQLSVYTTTRSHLGAENNIDLVLNVEDFDVESKFERTVNVSVPKKTRNNGTLYAYIFLHHAGVLPWHDGKQVHLVSPLTTYMVPKPEEINLLTGESDTQQIEAEKKPTSALDEPVSHWRPRLALNVMADNFVFDGSSLPADVHRYMKMIQLGKTVHYLPILFIDQLSNRVKDLMVINRSTTELPLTVSYDKVSLGRLRFWIHMQDAVYSLQQFGFSEKDADEVKGIFVDTNLYFLALTFFVAAFHLLFDFLAFKNDISFWKKKKSMIGMSTKAVLWRCFSTVVIFLFLLDEQTSLLVLVPAGVGAAIELWKVKKALKMTIFWRGLMPEFQFGTYSESERKTEEYDTQAMKYLSYLLYPLCVGGAVYSLLNIKYKSWYSWLINSFVNGVYAFGFLFMLPQLFVNYKLKSVAHLPWKAFTYKAFNTFIDDVFAFIITMPTSHRLACFRDDVVFLVYLYQRWLYPVDKRRVNEFGESYEEKATRAPHTD

These molecules were tested on GFP-14-3-3β and its binding proteins (assay: GFP-14-3-3β co-IP with LC-MS/MS label-free quantification, untreated versus PP1c-treated). Details: log2 difference; pairwise comparison PP1 vs untreated, label-free quantification, 3 replicates each.
Design: species or system human

Molecule | Difference (log2), PP1 vs untreated
B1 | 2.052

Same assay, conditions: pairwise comparison PP1 vs untreated

Molecule | Difference (log2), PP1 vs untreated [log2]
B2 | 0.1784
B3 | 0.177
B4 | 0.1672
B5 | 0.1636
B6 | 0.154

The molecules below were run on GFP-14-3-3β (assay: GFP-14-3-3β co-IP with LC-MS/MS, untreated GFP-14-3-3β versus GFP control (14-3-3 interactome)). Details: log2 difference; pairwise comparison untreated vs GFP, label-free quantification, 3 replicates each.
Format: binding, human

Molecule | Difference (log2), untreated vs GFP
B1 | -1.401

Same assay, conditions: pairwise comparison untreated vs GFP

Molecule | Difference (log2), untreated vs GFP [log2]
B2 | -0.2958
B3 | 1.1372
B4 | 0.2347
B5 | 2.137
B6 | 0.3996
